# Assay results reported in patent publication US20230272011A1 (AVACTA LIFE SCIENCES, published 2023).
# Changes are numbered by the printed parent chain. Numbers in names are those of the source.
# B1: HSA-41 D89A (designed binder)
# chain: MIPRGLSEAKPATPEIQEIVDKVKPQLEEKTNETYGKLEAVQYKTQVLANFFQRRWPGSTNYYIKVRAGDNKYMHLKVFNGPWKFRNTARGADRVLTGYQVDKNKDDELTGFHHHHHH
# B2: HSA-41 F85A (designed binder)
# chain: B1 chain with F85A, A89D
# B3: HSA-41 G58A (designed binder)
# chain: B1 chain with G58A, A89D
# B4: HSA-41 G91A (designed binder)
# chain: B1 chain with A89D, G91A
# B5: HSA-41 K84A (designed binder)
# chain: B1 chain with K84A, A89D
# B6: HSA-41 N50A (designed binder)
# chain: B1 chain with N50A, A89D
# B7: HSA-41 N87A (designed binder)
# chain: B1 chain with N87A, A89D
# B8: HSA-41 P57A (designed binder)
# chain: B1 chain with P57A, A89D
# B9: HSA-41 Q53A (designed binder)
# chain: B1 chain with Q53A, A89D
# B10: HSA-41 R54A (designed binder)
# chain: B1 chain with R54A, A89D
# B11: HSA-41 R86A (designed binder)
# chain: B1 chain with R86A, A89D
# B12: HSA-41 R90A (designed binder)
# chain: B1 chain with A89D, R90A
# B13: HSA-41 T88A (designed binder)
# chain: B1 chain with T88A, A89D
# B14: AVA04-236 XT7 (designed binder)
# chain: MIPRGLSEAKPATPEIQEIVDKVKPQLEEKTNETYGKLEAVQYKTQVLAKEHGPDSWWSTNYYIKVRAGDNKYMHLKVFNGPQEKNQWVEEADRVLTGYQVDKNKDDELTGFGGGGSGGGGSGGGGSGGGGSGGGGSGGGGSMIPRGLSEAKPATPEIQEIVDKVKPQLEEKTNETYGKLEAVQYKTQVLANFFQRRWPGSTNYYIKVRAGDNKYMHLKVFNGPWKFRNTDRGADRVLTGYQVDKNKDDELTGFHHHHHH
# B15: AVA04-269 XT11 (designed binder)
# chain: MIPRGLSEAKPATPEIQEIVDKVKPQLEEKTNETYGKLEAVQYKTQVLAKEYGPEEWWSTNYYIKVRAGDNKYMHLKVFNGPGDYEQVLIHADRVLTGYQVDKNKDDELTGFGGGGSGGGGSGGGGSGGGGSGGGGSGGGGSMIPRGLSEAKPATPEIQEIVDKVKPQLEEKTNETYGKLEAVQYKTQVLANFFQRRWPGSTNYYIKVRAGDNKYMHLKVFNGPWKFRNTDRGADRVLTGYQVDKNKDDELTGFHHHHHH
# B16: AVA04-236 XT8 (designed binder)
# chain: MIPRGLSEAKPATPEIQEIVDKVKPQLEEKTNETYGKLEAVQYKTQVLAKEHGPDSWWSTNYYIKVRAGDNKYMHLKVFNGPQEKNQWVEEADRVLTGYQVDKNKDDELTGFAEAAAKEAAAKEAAAKEAAAKEAAAKEAAAKMIPRGLSEAKPATPEIQEIVDKVKPQLEEKTNETYGKLEAVQYKTQVLANFFQRRWPGSTNYYIKVRAGDNKYMHLKVFNGPWKFRNTDRGADRVLTGYQVDKNKDDELTGFHHHHHH
# B17: AVA04-269 XT12 (designed binder)
# chain: MIPRGLSEAKPATPEIQEIVDKVKPQLEEKTNETYGKLEAVQYKTQVLAKEYGPEEWWSTNYYIKVRAGDNKYMHLKVFNGPGDYEQVLIHADRVLTGYQVDKNKDDELTGFAEAAAKEAAAKEAAAKEAAAKEAAAKEAAAKMIPRGLSEAKPATPEIQEIVDKVKPQLEEKTNETYGKLEAVQYKTQVLANFFQRRWPGSTNYYIKVRAGDNKYMHLKVFNGPWKFRNTDRGADRVLTGYQVDKNKDDELTGFHHHHHH
# B18: AVA04-261 XT9 (designed binder)
# chain: MIPRGLSEAKPATPEIQEIVDKVKPQLEEKTNETYGKLEAVQYKTQVLAHAYGPRDWDSTNYYIKVRAGDNKYMHLKVFNGPPADHVLEEAADRVLTGYQVDKNKDDELTGFGGGGSGGGGSGGGGSGGGGSGGGGSGGGGSMIPRGLSEAKPATPEIQEIVDKVKPQLEEKTNETYGKLEAVQYKTQVLANFFQRRWPGSTNYYIKVRAGDNKYMHLKVFNGPWKFRNTDRGADRVLTGYQVDKNKDDELTGFHHHHHH
# B19: AVA04-261 XT10 (designed binder)
# chain: MIPRGLSEAKPATPEIQEIVDKVKPQLEEKTNETYGKLEAVQYKTQVLAHAYGPRDWDSTNYYIKVRAGDNKYMHLKVFNGPPADHVLEEAADRVLTGYQVDKNKDDELTGFAEAAAKEAAAKEAAAKEAAAKEAAAKEAAAKMIPRGLSEAKPATPEIQEIVDKVKPQLEEKTNETYGKLEAVQYKTQVLANFFQRRWPGSTNYYIKVRAGDNKYMHLKVFNGPWKFRNTDRGADRVLTGYQVDKNKDDELTGFHHHHHH
# B20: AVA04-236 (designed binder)
# chain: MIPRGLSEAKPATPEIQEIVDKVKPQLEEKTNETYGKLEAVQYKTQVLAKEHGPDSWWSTNYYIKVRAGDNKYMHLKVFNGPQEKNQWVEEADRVLTGYQVDKNKDDELTGF
# B21: AVA04-269 (designed binder)
# chain: MIPRGLSEAKPATPEIQEIVDKVKPQLEEKTNETYGKLEAVQYKTQVLAKEYGPEEWWSTNYYIKVRAGDNKYMHLKVFNGPGDYEQVLIHADRVLTGYQVDKNKDDELTGF
# B22: AVA04-261 (designed binder)
# chain: MIPRGLSEAKPATPEIQEIVDKVKPQLEEKTNETYGKLEAVQYKTQVLAHAYGPRDWDSTNYYIKVRAGDNKYMHLKVFNGPPADHVLEEAADRVLTGYQVDKNKDDELTGF
# B23: HSA-41 DI (designed binder)
# chain: MIPRGLSEAKPATPEIQEIVDKVKPQLEEKTNETYGKLEAVQYKTQVLANFFQRRWPGSTNYYIKVRAGDNKYMHLKVFNGPWKFRNTDRGADRVLTGYQVDKNKDDELTGFGGGGSGGGGSGGGGSGGGGSGGGGSGGGGSMIPRGLSEAKPATPEIQEIVDKVKPQLEEKTNETYGKLEAVQYKTQVLANFFQRRWPGSTNYYIKVRAGDNKYMHLKVFNGPWKFRNTDRGADRVLTGYQVDKNKDDELTGFHHHHHH
# notes: also called ILF homodimer with flexible linker; ILF dimer HSA-41 DI
# B24: HSA-41 BK (designed binder)
# chain: MIPRGLSEAKPATPEIQEIVDKVKPQLEEKTNETYGKLEAVQYKTQVLANFFQRRWPGSTNYYIKVRAGDNKYMHLKVFNGPWKFRNTDRGADRVLTGYQVDKNKDDELTGFAEAAAKEAAAKEAAAKEAAAKEAAAKEAAAKMIPRGLSEAKPATPEIQEIVDKVKPQLEEKTNETYGKLEAVQYKTQVLANFFQRRWPGSTNYYIKVRAGDNKYMHLKVFNGPWKFRNTDRGADRVLTGYQVDKNKDDELTGFHHHHHH
# notes: also called ILF homodimer with rigid linker
# Target: T1, human serum albumin (human, UniProt P02768 25-609)
# T1 construct: mature; Bought protein; biotinylated in the Octet and HTRF assays; also called HSA; HuSA
# Assay: SPR (Biacore) binding response to HSA at pH 7.4, Affimer at 50 nM
# From the text: Final clones were sequence-verified, produced from E. coli, and affinity purified as described in Example 3.
row,Binder,binding response
1,B1,26.1
2,B2,26.6
3,B3,6.5
4,B4,17.8
5,B5,23.5
6,B6,13
7,B7,25.8
8,B8,23.2
9,B9,23.5
10,B10,11.9
11,B11,19.1
12,B12,17.2
13,B13,27.9

# Target: T1, human serum albumin
# Assay: SPR (Biacore), immobilised HSA, Affimer analyte
Binder,Kd,koff,kon
B14,13.3 nM,0.00336 s⁻¹,253000 M⁻¹ s⁻¹
B15,15.5 nM,0.00234 s⁻¹,151000 M⁻¹ s⁻¹
B16,9.5 nM,0.00252 s⁻¹,267000 M⁻¹ s⁻¹
B17,12.9 nM,0.00228 s⁻¹,177000 M⁻¹ s⁻¹
B18,13.3 nM,0.00357 s⁻¹,269000 M⁻¹ s⁻¹
B19,9.7 nM,0.00291 s⁻¹,299000 M⁻¹ s⁻¹

# Target: T2, human PD-L1-Fc (R&D Systems) chimeric protein (human, UniProt Q9NZQ7 19-239)
# T2 construct: Bought reagent; also called rhPD-L1-Fc; huPD-L1; Fc part of the bought chimera not given, not described
# T2 sequence (Q9NZQ7 19-239, change not shown): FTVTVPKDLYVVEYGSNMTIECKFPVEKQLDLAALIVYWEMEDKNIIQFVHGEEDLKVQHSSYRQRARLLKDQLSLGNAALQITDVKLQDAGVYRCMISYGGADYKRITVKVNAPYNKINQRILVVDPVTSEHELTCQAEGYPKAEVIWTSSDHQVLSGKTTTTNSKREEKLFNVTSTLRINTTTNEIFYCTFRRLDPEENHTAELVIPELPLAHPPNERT
# Assay: SPR (Biacore T200), PD-L1-Fc amine-coupled to CM5, Affimer analyte; apparent KD
# Protocol: (§1) ILF dimer production from E. coli was performed as described in Example 3. Briefly, protein was purified using three stages: affinity capture, IEX, and preparative SEC. […] To analyze PD-L1-Fc binding kinetics, a Biacore T200 kinetic analysis was performed using running buffer HBS-EP+ and series S sensor CM5 (GE Healthcare) chip Fc2 immobilized with PD-L1-Fc (R&D Systems) in 10 mM sodium acetate pH 4.0 using amine coupling reagents (GE Healthcare). The concentration titration of ILF AFFIMER® polypeptides was run as analyte at a flow rate of 30 μl/min. […] with 3 mM NaOH (GE healthcare) for 20 seconds at 20 μl/min flow rate. The Fc2-1 data blank was subtracted and fit to a 1:1 Langmuir binding model (Biacore evaluation software; GE) to calculate an apparent KD value.
row,Binder,Kd
1,B20,5.43 nM
2,B21,1.68 nM
3,B14,4.86 nM
4,B15,4.45 nM
5,B16,4.57 nM
6,B17,3.8 nM
7,B22,2.95 nM
8,B18,17.9 nM
9,B19,9.44 nM

# Target: T2, human PD-L1-Fc (R&D Systems) chimeric …
# Assay: SPR (Biacore T200), PD-L1-Fc amine-coupled to CM5, Affimer analyte
# Protocol: as §1
Binder,koff,kon
B20,0.00977 s⁻¹,1.8e+06 M⁻¹ s⁻¹
B21,0.00345 s⁻¹,2.05e+06 M⁻¹ s⁻¹
B14,0.00763 s⁻¹,1.57e+06 M⁻¹ s⁻¹
B15,0.00354 s⁻¹,796000 M⁻¹ s⁻¹
B16,0.00695 s⁻¹,1.52e+06 M⁻¹ s⁻¹
B17,0.00431 s⁻¹,1.14e+06 M⁻¹ s⁻¹
B22,0.0109 s⁻¹,3.68e+06 M⁻¹ s⁻¹
B18,0.00707 s⁻¹,395000 M⁻¹ s⁻¹
B19,0.00826 s⁻¹,875000 M⁻¹ s⁻¹

# Target: T1, human serum albumin
# Assay: Biacore, immobilised HSA, pH 7.4
# Protocol: Affinities for mouse, human, and cynomolgus serum were also measured at pH 7.4 for four (4) AFFIMER® binders using surface plasmon resonance (SPR) (FIG. 5, Table 5). […] A concentration titration of AFFIMER® monomers was run as analyte at a flow rate of 30 μl/min or 60 μl/min. Fc2-1, Fc3-1 and Fc4-1 kinetic data was blank subtracted and fit to a 1:1 Langmuir binding model (BIAcore Evalution software; GE) to calculate KD values.
# The AFFIMER® polypeptides were produced and purified from E. coli as described in Example 3.
Binder,Kd,koff,kon
B23,0.201 nM,0.000959 s⁻¹,4.77e+06 M⁻¹ s⁻¹
B24,0.128 nM,0.000994 s⁻¹,7.74e+06 M⁻¹ s⁻¹
